Reference: patent US20260001928A1 (CORTERIA PHARMACEUTICALS, priority 2022, published 2026)
*1 amine or outer side, *2 acyl side, *3 side chain or, on linkers, in order; H or OH if unused. Where no end group is shown, it is not given here. Side-chain parts run from the residue outwards. [ ]: non-standard residue; d: D form. The star is where a group is joined. C18 diacid = O=C(O)CCCCCCCCCCCCCCCCC(=O)*; C16 diacid = O=C(O)CCCCCCCCCCCCCCC(=O)*; γGlu = O=C(O)[C@H](CCC(=O)[*:2])N[*:1]; αMeL = CC(C)C[C@](C)(N)C(=O)O; AEEA = NCCOCCOCC(=O)O; Aib = CC(C)(N)C(=O)O

T1: CRF1R receptor (UniProt P34998 24-415, limits assumed)
T1 sequence (looked up): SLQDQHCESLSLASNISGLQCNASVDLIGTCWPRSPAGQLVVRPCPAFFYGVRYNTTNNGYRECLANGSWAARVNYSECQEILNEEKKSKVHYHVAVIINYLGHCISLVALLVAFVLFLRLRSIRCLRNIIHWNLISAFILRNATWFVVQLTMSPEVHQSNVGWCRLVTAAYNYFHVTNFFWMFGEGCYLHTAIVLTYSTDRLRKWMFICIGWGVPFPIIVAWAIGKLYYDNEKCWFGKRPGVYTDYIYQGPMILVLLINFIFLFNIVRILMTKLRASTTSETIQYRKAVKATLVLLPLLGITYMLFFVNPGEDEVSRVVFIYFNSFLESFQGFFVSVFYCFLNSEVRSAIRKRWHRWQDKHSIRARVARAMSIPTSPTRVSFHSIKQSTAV

B1: SEQ ID NO 97 (peptide)
peptide: Ac-IVLSLDVPIKLK([AEEA-AEEA-γGlu-C18 diacid])KILLEQEKQKKQREQAETN[Aib]QILAQV-NH2
SMILES: CC[C@H](C)[C@H](NC(C)=O)C(=O)N[C@H](C(=O)N[C@@H](CC(C)C)C(=O)N[C@@H](CO)C(=O)N[C@@H](CC(C)C)C(=O)N[C@@H](CC(=O)O)C(=O)N[C@H](C(=O)N1CCC[C@H]1C(=O)N[C@H](C(=O)N[C@@H](CCCCN)C(=O)N[C@@H](CC(C)C)C(=O)N[C@@H](CCCCNC(=O)COCCOCCNC(=O)COCCOCCNC(=O)CC[C@H](NC(=O)CCCCCCCCCCCCCCCCC(=O)O)C(=O)O)C(=O)N[C@@H](CCCCN)C(=O)N[C@H](C(=O)N[C@@H](CC(C)C)C(=O)N[C@@H](CC(C)C)C(=O)N[C@@H](CCC(=O)O)C(=O)N[C@@H](CCC(N)=O)C(=O)N[C@@H](CCC(=O)O)C(=O)N[C@@H](CCCCN)C(=O)N[C@@H](CCC(N)=O)C(=O)N[C@@H](CCCCN)C(=O)N[C@@H](CCCCN)C(=O)N[C@@H](CCC(N)=O)C(=O)N[C@@H](CCCNC(=N)N)C(=O)N[C@@H](CCC(=O)O)C(=O)N[C@@H](CCC(N)=O)C(=O)N[C@@H](C)C(=O)N[C@@H](CCC(=O)O)C(=O)N[C@H](C(=O)N[C@@H](CC(N)=O)C(=O)NC(C)(C)C(=O)N[C@@H](CCC(N)=O)C(=O)N[C@H](C(=O)N[C@@H](CC(C)C)C(=O)N[C@@H](C)C(=O)N[C@@H](CCC(N)=O)C(=O)N[C@H](C(N)=O)C(C)C)[C@@H](C)CC)[C@@H](C)O)[C@@H](C)CC)[C@@H](C)CC)C(C)C)C(C)C
B2: SEQ ID NO 20 (peptide)
peptide: Ac-IVLSLDVPIK[αMeL]K([γGlu-C16 diacid])Q[Aib]LLKQERQKKQREQAEKN[Aib]QILEQV-NH2
SMILES: CC[C@H](C)[C@H](NC(C)=O)C(=O)N[C@H](C(=O)N[C@@H](CC(C)C)C(=O)N[C@@H](CO)C(=O)N[C@@H](CC(C)C)C(=O)N[C@@H](CC(=O)O)C(=O)N[C@H](C(=O)N1CCC[C@H]1C(=O)N[C@H](C(=O)N[C@@H](CCCCN)C(=O)N[C@@](C)(CC(C)C)C(=O)N[C@@H](CCCCNC(=O)CC[C@H](NC(=O)CCCCCCCCCCCCCCC(=O)O)C(=O)O)C(=O)N[C@@H](CCC(N)=O)C(=O)NC(C)(C)C(=O)N[C@@H](CC(C)C)C(=O)N[C@@H](CC(C)C)C(=O)N[C@@H](CCCCN)C(=O)N[C@@H](CCC(N)=O)C(=O)N[C@@H](CCC(=O)O)C(=O)N[C@@H](CCCNC(=N)N)C(=O)N[C@@H](CCC(N)=O)C(=O)N[C@@H](CCCCN)C(=O)N[C@@H](CCCCN)C(=O)N[C@@H](CCC(N)=O)C(=O)N[C@@H](CCCNC(=N)N)C(=O)N[C@@H](CCC(=O)O)C(=O)N[C@@H](CCC(N)=O)C(=O)N[C@@H](C)C(=O)N[C@@H](CCC(=O)O)C(=O)N[C@@H](CCCCN)C(=O)N[C@@H](CC(N)=O)C(=O)NC(C)(C)C(=O)N[C@@H](CCC(N)=O)C(=O)N[C@H](C(=O)N[C@@H](CC(C)C)C(=O)N[C@@H](CCC(=O)O)C(=O)N[C@@H](CCC(N)=O)C(=O)N[C@H](C(N)=O)C(C)C)[C@@H](C)CC)[C@@H](C)CC)C(C)C)C(C)C
B3: SEQ ID NO 26 (peptide)
peptide: Ac-IVLSLDVPIKLK([AEEA-AEEA-γGlu-γGlu-C18 diacid])Q[Aib]LLKQERQKKQREQAEKN[Aib]QILEQV-NH2
SMILES: CC[C@H](C)[C@H](NC(C)=O)C(=O)N[C@H](C(=O)N[C@@H](CC(C)C)C(=O)N[C@@H](CO)C(=O)N[C@@H](CC(C)C)C(=O)N[C@@H](CC(=O)O)C(=O)N[C@H](C(=O)N1CCC[C@H]1C(=O)N[C@H](C(=O)N[C@@H](CCCCN)C(=O)N[C@@H](CC(C)C)C(=O)N[C@@H](CCCCNC(=O)COCCOCCNC(=O)COCCOCCNC(=O)CC[C@H](NC(=O)CC[C@H](NC(=O)CCCCCCCCCCCCCCCCC(=O)O)C(=O)O)C(=O)O)C(=O)N[C@@H](CCC(N)=O)C(=O)NC(C)(C)C(=O)N[C@@H](CC(C)C)C(=O)N[C@@H](CC(C)C)C(=O)N[C@@H](CCCCN)C(=O)N[C@@H](CCC(N)=O)C(=O)N[C@@H](CCC(=O)O)C(=O)N[C@@H](CCCNC(=N)N)C(=O)N[C@@H](CCC(N)=O)C(=O)N[C@@H](CCCCN)C(=O)N[C@@H](CCCCN)C(=O)N[C@@H](CCC(N)=O)C(=O)N[C@@H](CCCNC(=N)N)C(=O)N[C@@H](CCC(=O)O)C(=O)N[C@@H](CCC(N)=O)C(=O)N[C@@H](C)C(=O)N[C@@H](CCC(=O)O)C(=O)N[C@@H](CCCCN)C(=O)N[C@@H](CC(N)=O)C(=O)NC(C)(C)C(=O)N[C@@H](CCC(N)=O)C(=O)N[C@H](C(=O)N[C@@H](CC(C)C)C(=O)N[C@@H](CCC(=O)O)C(=O)N[C@@H](CCC(N)=O)C(=O)N[C@H](C(N)=O)C(C)C)[C@@H](C)CC)[C@@H](C)CC)C(C)C)C(C)C
B4: SEQ ID NO 39 (peptide)
peptide: Ac-IVLSLDVPIKLK([γGlu-C16 diacid])KILLEQEKQKKQREQAETN[Aib]QILAQV-NH2
SMILES: CC[C@H](C)[C@H](NC(C)=O)C(=O)N[C@H](C(=O)N[C@@H](CC(C)C)C(=O)N[C@@H](CO)C(=O)N[C@@H](CC(C)C)C(=O)N[C@@H](CC(=O)O)C(=O)N[C@H](C(=O)N1CCC[C@H]1C(=O)N[C@H](C(=O)N[C@@H](CCCCN)C(=O)N[C@@H](CC(C)C)C(=O)N[C@@H](CCCCNC(=O)CC[C@H](NC(=O)CCCCCCCCCCCCCCC(=O)O)C(=O)O)C(=O)N[C@@H](CCCCN)C(=O)N[C@H](C(=O)N[C@@H](CC(C)C)C(=O)N[C@@H](CC(C)C)C(=O)N[C@@H](CCC(=O)O)C(=O)N[C@@H](CCC(N)=O)C(=O)N[C@@H](CCC(=O)O)C(=O)N[C@@H](CCCCN)C(=O)N[C@@H](CCC(N)=O)C(=O)N[C@@H](CCCCN)C(=O)N[C@@H](CCCCN)C(=O)N[C@@H](CCC(N)=O)C(=O)N[C@@H](CCCNC(=N)N)C(=O)N[C@@H](CCC(=O)O)C(=O)N[C@@H](CCC(N)=O)C(=O)N[C@@H](C)C(=O)N[C@@H](CCC(=O)O)C(=O)N[C@H](C(=O)N[C@@H](CC(N)=O)C(=O)NC(C)(C)C(=O)N[C@@H](CCC(N)=O)C(=O)N[C@H](C(=O)N[C@@H](CC(C)C)C(=O)N[C@@H](C)C(=O)N[C@@H](CCC(N)=O)C(=O)N[C@H](C(N)=O)C(C)C)[C@@H](C)CC)[C@@H](C)O)[C@@H](C)CC)[C@@H](C)CC)C(C)C)C(C)C
B5: SEQ ID NO 38 (peptide)
peptide: IVLSLDVPIK[αMeL]K([γGlu-C16 diacid])KILLEQEKQKKQREQAETN[Aib]QILAQV-NH2
modifications: N-terminus assumed
SMILES: CC[C@H](C)[C@H](N)C(=O)N[C@H](C(=O)N[C@@H](CC(C)C)C(=O)N[C@@H](CO)C(=O)N[C@@H](CC(C)C)C(=O)N[C@@H](CC(=O)O)C(=O)N[C@H](C(=O)N1CCC[C@H]1C(=O)N[C@H](C(=O)N[C@@H](CCCCN)C(=O)N[C@@](C)(CC(C)C)C(=O)N[C@@H](CCCCNC(=O)CC[C@H](NC(=O)CCCCCCCCCCCCCCC(=O)O)C(=O)O)C(=O)N[C@@H](CCCCN)C(=O)N[C@H](C(=O)N[C@@H](CC(C)C)C(=O)N[C@@H](CC(C)C)C(=O)N[C@@H](CCC(=O)O)C(=O)N[C@@H](CCC(N)=O)C(=O)N[C@@H](CCC(=O)O)C(=O)N[C@@H](CCCCN)C(=O)N[C@@H](CCC(N)=O)C(=O)N[C@@H](CCCCN)C(=O)N[C@@H](CCCCN)C(=O)N[C@@H](CCC(N)=O)C(=O)N[C@@H](CCCNC(=N)N)C(=O)N[C@@H](CCC(=O)O)C(=O)N[C@@H](CCC(N)=O)C(=O)N[C@@H](C)C(=O)N[C@@H](CCC(=O)O)C(=O)N[C@H](C(=O)N[C@@H](CC(N)=O)C(=O)NC(C)(C)C(=O)N[C@@H](CCC(N)=O)C(=O)N[C@H](C(=O)N[C@@H](CC(C)C)C(=O)N[C@@H](C)C(=O)N[C@@H](CCC(N)=O)C(=O)N[C@H](C(N)=O)C(C)C)[C@@H](C)CC)[C@@H](C)O)[C@@H](C)CC)[C@@H](C)CC)C(C)C)C(C)C
B6: SEQ ID NO 19 (peptide)
peptide: Ac-IVLSLDVPIK[αMeL]K([γGlu-C16 diacid])QILLKQERQKKQREQAEKN[Aib]QILEQV-NH2
SMILES: CC[C@H](C)[C@H](NC(C)=O)C(=O)N[C@H](C(=O)N[C@@H](CC(C)C)C(=O)N[C@@H](CO)C(=O)N[C@@H](CC(C)C)C(=O)N[C@@H](CC(=O)O)C(=O)N[C@H](C(=O)N1CCC[C@H]1C(=O)N[C@H](C(=O)N[C@@H](CCCCN)C(=O)N[C@@](C)(CC(C)C)C(=O)N[C@@H](CCCCNC(=O)CC[C@H](NC(=O)CCCCCCCCCCCCCCC(=O)O)C(=O)O)C(=O)N[C@@H](CCC(N)=O)C(=O)N[C@H](C(=O)N[C@@H](CC(C)C)C(=O)N[C@@H](CC(C)C)C(=O)N[C@@H](CCCCN)C(=O)N[C@@H](CCC(N)=O)C(=O)N[C@@H](CCC(=O)O)C(=O)N[C@@H](CCCNC(=N)N)C(=O)N[C@@H](CCC(N)=O)C(=O)N[C@@H](CCCCN)C(=O)N[C@@H](CCCCN)C(=O)N[C@@H](CCC(N)=O)C(=O)N[C@@H](CCCNC(=N)N)C(=O)N[C@@H](CCC(=O)O)C(=O)N[C@@H](CCC(N)=O)C(=O)N[C@@H](C)C(=O)N[C@@H](CCC(=O)O)C(=O)N[C@@H](CCCCN)C(=O)N[C@@H](CC(N)=O)C(=O)NC(C)(C)C(=O)N[C@@H](CCC(N)=O)C(=O)N[C@H](C(=O)N[C@@H](CC(C)C)C(=O)N[C@@H](CCC(=O)O)C(=O)N[C@@H](CCC(N)=O)C(=O)N[C@H](C(N)=O)C(C)C)[C@@H](C)CC)[C@@H](C)CC)[C@@H](C)CC)C(C)C)C(C)C

How the values were obtained:
CRF1R receptor = target: T1, CRF1R receptor; experiment: cell-based or functional assay
[1] = target: human corticotropin-releasing factor 2a (CRF2a receptor) (human), Q13324; experiment: cell-based or functional assay
human corticotropin-releasing factor 2a (CRF2a receptor) (human), Q13324, sequence (Q13324 20-411): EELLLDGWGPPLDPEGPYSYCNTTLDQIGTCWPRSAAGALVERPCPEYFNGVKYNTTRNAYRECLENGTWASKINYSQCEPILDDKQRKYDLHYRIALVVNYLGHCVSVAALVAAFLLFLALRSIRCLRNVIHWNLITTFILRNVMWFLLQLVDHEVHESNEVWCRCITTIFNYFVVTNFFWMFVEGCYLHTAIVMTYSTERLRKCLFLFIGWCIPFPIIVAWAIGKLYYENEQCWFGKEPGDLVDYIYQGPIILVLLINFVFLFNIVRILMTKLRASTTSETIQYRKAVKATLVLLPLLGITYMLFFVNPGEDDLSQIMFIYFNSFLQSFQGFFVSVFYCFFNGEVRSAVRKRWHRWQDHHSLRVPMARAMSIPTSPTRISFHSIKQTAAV

Emax (% I) (CRF1R receptor) [%]	EC50 [nM] (cAMP) [1]	EC50 (CRF1R receptor) [nM]	Binder
0	3.17	–	B1
3	1.09	–	B2
1	18.6	> 250	B3
2	0.53	–	B4
6	0.49	–	B5
6	0.28	–	B6
